Laboratory results as given in paper PMC3285607, “A P-loop Mutation in Gα Subunits Prevents Transition to the Active State: Implications for G-protein Signaling in Fungal Pathogenesis” (PLoS Pathogens, 2012).

Target: T1, GαoA, wild type, full-length, hexahistidine-tagged (UniProt P09471 1-354)
T1 construct: also called wild type GαoA
Test: SPR; Biacore 3000; GST-RGS12 RGS domain captured on anti-GST antibody on a CM5 chip; Gαo injected in the GDP·AlF4- state; equilibrium binding isotherm
Details: both partners purified

T1 sequence (P09471 whole entry): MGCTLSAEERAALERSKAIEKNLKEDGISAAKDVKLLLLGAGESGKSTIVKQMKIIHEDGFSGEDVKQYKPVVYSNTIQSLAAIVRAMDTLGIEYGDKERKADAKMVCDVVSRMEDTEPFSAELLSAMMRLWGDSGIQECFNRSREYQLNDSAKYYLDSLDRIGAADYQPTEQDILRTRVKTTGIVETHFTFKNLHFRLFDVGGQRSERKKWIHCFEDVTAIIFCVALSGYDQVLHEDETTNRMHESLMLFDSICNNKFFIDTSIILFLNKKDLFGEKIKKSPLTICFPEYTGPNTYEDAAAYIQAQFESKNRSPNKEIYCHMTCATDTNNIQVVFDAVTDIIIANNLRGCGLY

B1: GST fusion of the RGS12 RGS domain (aa 664–885) (domain or fragment, UniProt O14924 664-885, looked up)
chain: DLESATVSDGELTGADLKDCVSNNSLSSNASLPSVQSCRRLRERRVASWAVSFERLLQDPVGVRYFSDFLRKEFSEENILFWQACEYFNHVPAHDKKELSYRAREIFSKFLCSKATTPVNIDSQAQLADDVLRAPHPDMFKEQQLQIFNLMKFDSYTRFLKSPLYQECILAEVEGRALPDSQQVPSSPASKHSLGSDHSSVSTPKKLSGKSKSGRSLNEELG
notes: also called GST-RGS12
Work on B1 yielded a Kd of 1270 nM.
